In assay [1] the target is T1, αvβ5 integrin on A375Ppuro cells (UniProt P06756 31-1048; P18084 24-799).
T1 construct: whole, on cells
Description: flow cytometry on A375Ppuro cells, which express αvβ5. Background: A flow cytometer gives signals particle by particle.

Assay [2] concerns the target T2, αvβ3 integrin, immobilized (UniProt P06756 31-1048; P05106 27-788).
T2 construct: also called immobilized αvβ3
The assay is described as follows: ELISA on immobilized αvβ3, rabbit anti-MFE detection.

Assay [3] deals with T3, αvβ8 integrin on A375Ppuro cells (UniProt P06756 31-1048; P26012 43-769).
T3 construct: whole, on cells
The assay is described as follows: flow cytometry on A375Ppuro cells, which express αvβ8.

Assay [4] deals with T4, carcinoembryonic antigen, immobilized (UniProt P06731 35-685).
T4 construct: also called CEA; immobilized CEA
T4 sequence: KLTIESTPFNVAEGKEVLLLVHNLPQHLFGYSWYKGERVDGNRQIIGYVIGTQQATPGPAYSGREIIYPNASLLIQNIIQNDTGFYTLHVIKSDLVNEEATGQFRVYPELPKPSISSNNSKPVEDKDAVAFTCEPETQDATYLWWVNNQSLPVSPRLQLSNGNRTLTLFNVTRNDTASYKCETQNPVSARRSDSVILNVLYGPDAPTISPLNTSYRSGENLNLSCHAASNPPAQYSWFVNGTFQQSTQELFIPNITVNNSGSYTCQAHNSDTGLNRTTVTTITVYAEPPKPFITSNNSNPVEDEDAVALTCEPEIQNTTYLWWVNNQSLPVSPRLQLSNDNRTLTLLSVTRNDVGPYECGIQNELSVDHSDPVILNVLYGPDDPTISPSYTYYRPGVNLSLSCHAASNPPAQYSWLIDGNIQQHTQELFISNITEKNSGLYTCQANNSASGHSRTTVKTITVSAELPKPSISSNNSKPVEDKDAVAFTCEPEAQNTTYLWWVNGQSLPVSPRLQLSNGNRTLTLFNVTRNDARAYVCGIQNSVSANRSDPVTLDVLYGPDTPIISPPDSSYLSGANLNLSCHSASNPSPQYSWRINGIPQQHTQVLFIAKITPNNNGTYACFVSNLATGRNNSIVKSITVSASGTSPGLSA
Description: ELISA on immobilized CEA, rabbit anti-MFE detection, three concentrations. (In general: In an ELISA, binding on a coated surface is turned into a signal by an enzyme label.)

Assay [5] addresses T5, α5β1 integrin on A375Ppuro cells (UniProt P08648 42-1049; P05556 21-798).
T5 construct: whole, on cells
Description: flow cytometry on A375Ppuro cells, which express α5β1.

Assay [6] deals with T6, αvβ3 integrin on A375Ppuro cells (UniProt P06756 31-1048; P05106 27-788).
T6 construct: whole, on cells
Description: flow cytometry on A375Ppuro cells, which express αvβ3.

Assay [7] has as its target T7, carcinoembryonic antigen on LS-174T cells (human, UniProt P06731 35-702).
T7 construct: whole, on cells; also called CEA on LS174T cells; CEA-expressing LS-174T cells
T7 sequence: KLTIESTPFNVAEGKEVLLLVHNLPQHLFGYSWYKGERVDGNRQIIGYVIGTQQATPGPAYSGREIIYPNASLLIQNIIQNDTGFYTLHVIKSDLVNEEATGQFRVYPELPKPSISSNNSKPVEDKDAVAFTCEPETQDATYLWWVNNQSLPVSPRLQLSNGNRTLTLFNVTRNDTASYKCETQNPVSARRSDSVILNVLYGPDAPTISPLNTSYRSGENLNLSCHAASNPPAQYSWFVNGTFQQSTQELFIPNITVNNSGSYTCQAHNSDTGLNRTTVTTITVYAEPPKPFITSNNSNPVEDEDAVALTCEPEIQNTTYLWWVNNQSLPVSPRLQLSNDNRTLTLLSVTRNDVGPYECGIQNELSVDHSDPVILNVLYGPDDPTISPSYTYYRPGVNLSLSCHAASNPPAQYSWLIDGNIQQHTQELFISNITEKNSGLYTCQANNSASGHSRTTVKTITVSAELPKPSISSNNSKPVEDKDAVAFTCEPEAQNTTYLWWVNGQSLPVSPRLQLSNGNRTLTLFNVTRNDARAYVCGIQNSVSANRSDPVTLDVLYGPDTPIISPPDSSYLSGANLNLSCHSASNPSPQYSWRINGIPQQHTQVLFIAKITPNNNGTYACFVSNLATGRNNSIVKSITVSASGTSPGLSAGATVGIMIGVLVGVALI
Description: flow cytometry on LS174T cells.

In assay [8] the target is T8, αvβ6 integrin, immobilized (UniProt P06756 31-992; P18564 22-709).
T8 construct: also called immobilized αvβ6; rsαvβ6
The assay is described as follows: ELISA on immobilized αvβ6, rabbit anti-MFE detection.

T5 sequence (P08648 42-1049, chain 1 of 2): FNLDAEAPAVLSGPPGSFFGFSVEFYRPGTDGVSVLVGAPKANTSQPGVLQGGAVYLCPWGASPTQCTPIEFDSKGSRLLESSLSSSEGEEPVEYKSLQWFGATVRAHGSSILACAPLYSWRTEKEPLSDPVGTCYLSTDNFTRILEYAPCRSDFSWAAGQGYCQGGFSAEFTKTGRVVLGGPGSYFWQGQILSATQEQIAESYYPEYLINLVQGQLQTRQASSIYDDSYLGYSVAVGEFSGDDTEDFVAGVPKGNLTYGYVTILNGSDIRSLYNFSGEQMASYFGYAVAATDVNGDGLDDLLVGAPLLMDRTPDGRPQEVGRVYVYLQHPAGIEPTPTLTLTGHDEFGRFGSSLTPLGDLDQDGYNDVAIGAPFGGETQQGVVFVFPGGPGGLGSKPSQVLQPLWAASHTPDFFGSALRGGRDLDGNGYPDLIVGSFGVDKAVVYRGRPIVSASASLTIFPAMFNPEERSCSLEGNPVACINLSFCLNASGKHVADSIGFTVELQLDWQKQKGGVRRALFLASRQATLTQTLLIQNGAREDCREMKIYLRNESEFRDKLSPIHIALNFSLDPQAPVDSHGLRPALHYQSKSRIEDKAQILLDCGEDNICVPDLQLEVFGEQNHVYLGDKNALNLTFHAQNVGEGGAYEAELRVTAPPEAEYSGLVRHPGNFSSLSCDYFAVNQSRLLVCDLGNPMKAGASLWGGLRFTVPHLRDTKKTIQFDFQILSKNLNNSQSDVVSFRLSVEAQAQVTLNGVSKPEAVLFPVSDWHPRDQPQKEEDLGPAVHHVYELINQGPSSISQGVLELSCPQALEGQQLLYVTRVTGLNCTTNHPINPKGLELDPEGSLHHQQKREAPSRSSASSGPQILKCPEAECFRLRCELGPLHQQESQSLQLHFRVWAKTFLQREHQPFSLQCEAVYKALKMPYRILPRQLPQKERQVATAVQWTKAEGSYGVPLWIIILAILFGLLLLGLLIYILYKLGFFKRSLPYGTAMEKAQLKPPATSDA
T5 sequence (P05556 21-798, chain 2 of 2): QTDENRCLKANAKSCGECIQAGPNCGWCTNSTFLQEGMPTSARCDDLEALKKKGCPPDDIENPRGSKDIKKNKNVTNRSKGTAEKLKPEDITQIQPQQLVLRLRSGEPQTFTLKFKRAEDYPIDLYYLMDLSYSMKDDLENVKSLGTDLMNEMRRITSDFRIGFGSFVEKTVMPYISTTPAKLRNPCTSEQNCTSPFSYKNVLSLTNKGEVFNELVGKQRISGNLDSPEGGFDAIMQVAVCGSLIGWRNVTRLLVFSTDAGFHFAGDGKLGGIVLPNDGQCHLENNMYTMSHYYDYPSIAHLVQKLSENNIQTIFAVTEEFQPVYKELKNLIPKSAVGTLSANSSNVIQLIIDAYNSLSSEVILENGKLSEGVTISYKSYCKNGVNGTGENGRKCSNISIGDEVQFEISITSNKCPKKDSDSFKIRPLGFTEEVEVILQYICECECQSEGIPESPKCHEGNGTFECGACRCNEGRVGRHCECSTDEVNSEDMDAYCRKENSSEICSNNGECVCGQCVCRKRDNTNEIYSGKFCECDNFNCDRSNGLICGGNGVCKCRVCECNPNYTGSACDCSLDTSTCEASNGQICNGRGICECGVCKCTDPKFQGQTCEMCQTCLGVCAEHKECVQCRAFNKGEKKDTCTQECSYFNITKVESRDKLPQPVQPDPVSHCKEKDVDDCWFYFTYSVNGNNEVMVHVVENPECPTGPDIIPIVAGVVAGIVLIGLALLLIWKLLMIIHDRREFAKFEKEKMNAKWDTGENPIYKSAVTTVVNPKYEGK
T1 sequence (P06756 31-1048, chain 1 of 2): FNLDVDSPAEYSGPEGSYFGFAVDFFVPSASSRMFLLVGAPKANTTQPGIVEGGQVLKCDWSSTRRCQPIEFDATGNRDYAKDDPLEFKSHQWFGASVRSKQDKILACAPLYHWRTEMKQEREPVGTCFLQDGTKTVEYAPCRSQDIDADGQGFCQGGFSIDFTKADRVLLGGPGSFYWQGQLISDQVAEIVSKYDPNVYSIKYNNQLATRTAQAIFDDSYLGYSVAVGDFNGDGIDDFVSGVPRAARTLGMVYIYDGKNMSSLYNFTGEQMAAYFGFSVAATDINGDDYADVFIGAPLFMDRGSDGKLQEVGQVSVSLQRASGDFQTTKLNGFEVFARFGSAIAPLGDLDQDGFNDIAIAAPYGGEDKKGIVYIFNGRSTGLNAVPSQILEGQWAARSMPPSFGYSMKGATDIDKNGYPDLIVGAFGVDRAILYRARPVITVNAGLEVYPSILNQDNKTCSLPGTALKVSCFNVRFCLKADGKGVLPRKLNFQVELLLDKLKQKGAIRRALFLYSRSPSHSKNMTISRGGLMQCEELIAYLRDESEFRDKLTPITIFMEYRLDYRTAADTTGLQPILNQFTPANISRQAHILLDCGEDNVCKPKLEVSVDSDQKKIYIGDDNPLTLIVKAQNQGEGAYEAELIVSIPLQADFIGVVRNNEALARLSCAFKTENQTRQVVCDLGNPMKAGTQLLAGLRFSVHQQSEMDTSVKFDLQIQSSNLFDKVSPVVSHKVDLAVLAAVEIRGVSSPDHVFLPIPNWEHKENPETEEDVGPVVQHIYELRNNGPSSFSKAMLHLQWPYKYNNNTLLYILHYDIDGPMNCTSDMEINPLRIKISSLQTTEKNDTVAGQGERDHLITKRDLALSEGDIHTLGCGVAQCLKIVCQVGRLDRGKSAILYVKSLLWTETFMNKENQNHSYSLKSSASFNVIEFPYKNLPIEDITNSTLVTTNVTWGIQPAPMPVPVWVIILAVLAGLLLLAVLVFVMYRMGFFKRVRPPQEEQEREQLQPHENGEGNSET
T1 sequence (P18084 24-799, chain 2 of 2): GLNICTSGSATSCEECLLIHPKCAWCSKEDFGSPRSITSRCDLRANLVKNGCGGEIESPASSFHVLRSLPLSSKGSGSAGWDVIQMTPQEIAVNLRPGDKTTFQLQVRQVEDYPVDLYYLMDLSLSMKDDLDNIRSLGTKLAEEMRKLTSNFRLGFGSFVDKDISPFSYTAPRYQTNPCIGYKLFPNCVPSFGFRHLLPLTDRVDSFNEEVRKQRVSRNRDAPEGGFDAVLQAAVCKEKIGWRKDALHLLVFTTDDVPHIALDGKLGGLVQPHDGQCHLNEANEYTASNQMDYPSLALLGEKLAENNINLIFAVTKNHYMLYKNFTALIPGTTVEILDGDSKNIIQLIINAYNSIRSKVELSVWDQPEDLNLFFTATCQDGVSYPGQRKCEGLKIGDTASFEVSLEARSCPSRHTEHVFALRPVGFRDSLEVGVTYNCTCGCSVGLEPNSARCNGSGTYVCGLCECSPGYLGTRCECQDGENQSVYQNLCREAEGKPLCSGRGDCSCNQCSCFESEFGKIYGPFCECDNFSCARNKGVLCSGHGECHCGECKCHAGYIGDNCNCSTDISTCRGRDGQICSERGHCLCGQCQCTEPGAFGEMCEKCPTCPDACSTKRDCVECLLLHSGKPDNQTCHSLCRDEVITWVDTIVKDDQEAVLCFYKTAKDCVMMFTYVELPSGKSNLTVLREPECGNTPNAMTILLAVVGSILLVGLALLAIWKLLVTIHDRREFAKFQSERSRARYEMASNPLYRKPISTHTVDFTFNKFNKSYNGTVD
T2 sequence (P06756 31-1048, chain 1 of 2): as the sequence (P06756 31-1048, chain 1 of 2) above
T2 sequence (P05106 27-788, chain 2 of 2): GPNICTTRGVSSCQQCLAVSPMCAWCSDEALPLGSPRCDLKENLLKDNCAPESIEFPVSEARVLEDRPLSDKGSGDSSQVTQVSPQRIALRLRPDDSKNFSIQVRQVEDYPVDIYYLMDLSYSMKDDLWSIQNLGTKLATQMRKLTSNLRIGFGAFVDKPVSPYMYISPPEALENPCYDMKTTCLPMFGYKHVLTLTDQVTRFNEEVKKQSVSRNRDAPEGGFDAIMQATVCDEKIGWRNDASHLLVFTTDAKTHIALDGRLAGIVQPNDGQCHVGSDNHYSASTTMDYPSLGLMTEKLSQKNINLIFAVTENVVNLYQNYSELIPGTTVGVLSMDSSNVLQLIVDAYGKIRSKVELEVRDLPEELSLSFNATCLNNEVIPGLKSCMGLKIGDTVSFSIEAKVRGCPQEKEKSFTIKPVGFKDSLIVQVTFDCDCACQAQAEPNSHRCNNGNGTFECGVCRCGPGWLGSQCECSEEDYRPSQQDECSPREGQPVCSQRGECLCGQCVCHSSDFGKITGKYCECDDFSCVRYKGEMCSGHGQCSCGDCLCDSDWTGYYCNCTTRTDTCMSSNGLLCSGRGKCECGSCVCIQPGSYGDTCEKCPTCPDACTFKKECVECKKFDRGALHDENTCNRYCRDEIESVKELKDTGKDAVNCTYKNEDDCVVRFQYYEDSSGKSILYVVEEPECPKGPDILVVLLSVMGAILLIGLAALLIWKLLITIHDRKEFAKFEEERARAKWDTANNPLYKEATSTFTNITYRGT
T6 sequence (P06756 31-1048, chain 1 of 2): as the sequence (P06756 31-1048, chain 1 of 2) above
T6 sequence (P05106 27-788, chain 2 of 2): as the sequence (P05106 27-788, chain 2 of 2) above

B1: NFEVP1 (scFv)
scFv: QVKLQQSGAELVRSGTSVKLSCTASGFNIKDSYMHWLRQGPEQGLEWIGWIDPENGDTEYAPKFQGKATFTTDTSSNTAYLQLSSLTSEDTAVYYCNEGTPTAVPNLRGDLQVLAQKVAGPYPFDYWGQGTTVTVSSGGGGSGGGGSGGGGSENVLTQSPAIMSASPGEKVTITCSASSSVSYMHWFQQKPGTSPKLWIYSTSNLASGVPARFSGSGSGTSYSLTISRMEAEDAATYYCQQRSSYPLTFGAGTKLELKRAAAHHHHHH
With B1, the binding result in assay [1] is listed as “no binding”; in assay [2], “no binding (tested: 20 µg/ml)”; in assay [3], “no binding”; in assay [4], “no binding”; in assay [5] it was “no binding”; in assay [6] it was “no binding”. Also, the binding result in assay [7] is on record as “no binding (tested: 50 µg/ml)”.

B2: MFE-23 scFv (scFv)
scFv: QVKLQQSGAELVRSGTSVKLSCTASGFNIKDSYMHWLRQGPEQGLEWIGWIDPENGDTEYAPKFQGKATFTTDTSSNTAYLQLSSLTSEDTAVYYCNEGTPTGPYYFDYWGQGTTVTVSSGGGGSGGGGSGGGGSENVLTQSPAIMSASPGEKVTITCSASSSVSYMHWFQQKPGTSPKLWIYSTSNLASGVPARFSGSGSGTSYSLTISRMEAEDAATYYCQQRSSYPLTFGAGTKLELKRAAAHHHHHH
notes: also called parent MFE
In the case of B2, the binding result in assay [8] is listed as “no binding (tested: 10 µg/ml)”.
